According to patent US8241610B2, “Adjuvant combinations of liposomes and mycobacterial lipids for immunization compositions and vaccines” (Statens Serum Institut, priority 2003, dated 2012):

B1: OVA: Ovalbumin, Sigma Aldrich; given in total lipids/DDA (protein, UniProt P01012 2-386, looked up)
Ovalbumin: GSIGAASMEFCFDVFKELKVHHANENIFYCPIAIMSALAMVYLGAKDSTRTQINKVVRFDKLPGFGDSIEAQCGTSVNVHSSLRDILNQITKPNDVYSFSLASRLYAEERYPILPEYLQCVKELYRGGLEPINFQTAADQARELINSWVESQTNGIIRNVLQPSSVDSQTAMVLVNAIVFKGLWEKAFKDEDTQAMPFRVTEQESKPVQMMYQIGLFRVASMASEKMKILELPFASGTMSMLVLLPDEVSGLEQLESIINFEKLTEWTSSNVMEERKIKVYLPRMKMEEKYNLTSVLMAMGITDVFSSSANLSGISSAESLKISQAVHAAHAEINEAGREVVGSAEAGVDAASVSEEFRADHPFLFCIKHIATNAVLFFGRCVSP

Experiments:
blood lymphocytes = experiment: IFN-gamma release from blood lymphocytes of immunized mice re-stimulated in vitro with antigen (ELISA); details: mouse, in vivo, sc
antigen-specific IgG = test system: antigen-specific IgG; design: species or system mice; details: mouse, in vivo, sc

Molecule	Immune response: release of IFN-gamma from blood lymphocytes (blood lymphocytes)	IgG1, antigen-specific levels (midpoint titres) (antigen-specific IgG)	IgG2a, antigen-specific levels (midpoint titres) (antigen-specific IgG)
Tetanus toxoid: Tetanus toxoid from Statens Serum Institut; given in total lipids/DDA	52500 ± 13500	–	–
B1	793 ± 81	2500	<100
